As a reminder, the Kd is a measure of binding affinity in units of concentration. Lower therefore signals higher affinity. By koff is commonly meant a measure of how fast the partners let go of each other. The low end stands for slow dissociation, the high end for fast dissociation.

Test [1] addresses wildtype Chinese hamster BiP, unmodified (BiP^WT) (UniProt G3I8R9). Put plainly: BLI. The conditions noted are these: trace 3; association in presence of ATP; signal at end of association step (20 min); parent is trace 1; parent: est. 4.2; read off a plot.
Test [2] addresses AMPylated wildtype Chinese hamster BiP (BiP^WT-AMP) (UniProt G3I8R9). Put plainly: BLI. To be noted: trace 6; AMPylated BiP WT; association in presence of ATP; signal at end of association step (20 min); parent is trace 4; parent: est. 0.95; read off a plot.
For test [3], the target named is wildtype Chinese hamster BiP, unmodified (BiP^WT) (Chinese hamster (Cricetulus griseus)) (UniProt G3I8R9).
wildtype Chinese hamster BiP, unmodified (BiP^WT) (Chinese hamster (Cricetulus griseus)), sequence (G3I8R9 19-654): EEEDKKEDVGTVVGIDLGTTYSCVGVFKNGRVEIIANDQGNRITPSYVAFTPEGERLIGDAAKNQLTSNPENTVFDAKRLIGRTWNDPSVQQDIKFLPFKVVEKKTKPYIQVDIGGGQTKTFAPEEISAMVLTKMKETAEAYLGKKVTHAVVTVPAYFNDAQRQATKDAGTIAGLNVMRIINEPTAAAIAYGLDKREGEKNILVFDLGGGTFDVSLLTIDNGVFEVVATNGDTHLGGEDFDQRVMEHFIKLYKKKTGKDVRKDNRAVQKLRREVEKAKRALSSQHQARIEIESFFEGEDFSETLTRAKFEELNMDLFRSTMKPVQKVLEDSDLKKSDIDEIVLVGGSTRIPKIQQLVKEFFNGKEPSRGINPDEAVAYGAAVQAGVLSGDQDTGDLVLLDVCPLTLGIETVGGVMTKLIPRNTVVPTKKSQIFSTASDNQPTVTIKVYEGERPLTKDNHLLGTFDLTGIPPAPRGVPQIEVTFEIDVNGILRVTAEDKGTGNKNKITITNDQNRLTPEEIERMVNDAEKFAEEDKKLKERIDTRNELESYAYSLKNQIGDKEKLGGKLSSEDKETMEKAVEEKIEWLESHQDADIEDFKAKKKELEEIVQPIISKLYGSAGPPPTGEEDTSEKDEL
In test [4] the target is T1, AMPylated Chinese hamster BiP T229A-V461F double mutant (AMPylated BiP^T229A-V461F) (Chinese hamster (Cricetulus griseus), UniProt G3I8R9 19-654, T229A | V461F, AMP on threonine 518 (T518-AMP)).
T1 construct: BiP (Grp78), Chinese hamster (Cricetulus griseus); Construct limits: see note of m1; source: E. coli M15, purified (Ni-NTA)
T1 sequence (G3I8R9 19-654 T229A/V461F): as the sequence (G3I8R9 19-654) above, with T211A, V443F counted along it
The test is described as follows: BLI; Octet RED96, streptavidin sensors saturated with biotinylated GST-J (no P15); BiP^T229A-V461F at different concentrations in solution, 1 mM ATP in baseline, association and dissociation; HKM with 0.05% Triton X-100, 24°C; KD from steady state binding signals; binding sensitive to increasing KCl. The conditions noted are these: both partners purified. A general note: Biolayer interferometry detects binding as a change in optical thickness at a sensor tip.

In test [5] the target is T2, Chinese hamster BiP T229A-V461F double mutant (BiP^T229A-V461F), unmodified (Chinese hamster (Cricetulus griseus), UniProt G3I8R9 19-654, T229A | V461F).
T2 construct: BiP (Grp78), Chinese hamster (Cricetulus griseus); Construct limits: see note of m1; source: E. coli M15, purified (Ni-NTA)
T2 sequence (G3I8R9 19-654 T229A/V461F): as the sequence (G3I8R9 19-654) above, with T211A, V443F counted along it
The description is as above. To be noted: both partners purified.

The target in test [6] is T3, wildtype Chinese hamster BiP, unmodified (BiP^WT) (Chinese hamster (Cricetulus griseus), UniProt G3I8R9 19-654).
T3 construct: BiP (Grp78), Chinese hamster (Cricetulus griseus); also called Grp78; haBiP; source: E. coli M15, purified (Ni-NTA); unmodified control from mock AMPylation reactions without enzyme
T3 sequence (G3I8R9 19-654): as the sequence (G3I8R9 19-654) above
The test is described as follows: BLI; Octet RED96, streptavidin sensors with biotinylated GST-J (to 0.4 nm) then saturated with biotinylated P15; BiP 15 µM in HKM with 0.05% Triton X-100 and 2 mM ATP for association; dissociation in protein-free solution with 2 mM ADP or ATP; 24°C; one-phase decay fit of the dissociation. The conditions noted are these: both partners purified.

Test [7] concerns the target T4, AMPylated wildtype Chinese hamster BiP (BiP^WT-AMP) (Chinese hamster (Cricetulus griseus), UniProt G3I8R9 19-654, AMP on threonine 518 (T518-AMP)).
T4 construct: BiP (Grp78), Chinese hamster (Cricetulus griseus); Same construct as m1, AMPylated at high stoichiometry (intact mass spectrometry); Construct limits: see note of m1; also called BiP-AMP; AMPylated BiP; source: E. coli M15, purified (Ni-NTA)
Described as above. The conditions noted are these: both partners purified.

Test [8] has as its target T5, Chinese hamster BiP T518E mutant (BiP^T518E) (Chinese hamster (Cricetulus griseus), UniProt G3I8R9 19-654, T518E).
T5 construct: BiP (Grp78), Chinese hamster (Cricetulus griseus); Mimics aspects of AMPylation; Construct limits: see note of m1; source: E. coli M15, purified (Ni-NTA)
Described as above. To be noted: both partners purified.

T5 sequence (G3I8R9 19-654 T518E): as the sequence (G3I8R9 19-654) above, with T500E counted along it
T4 sequence (G3I8R9 19-654): as the sequence (G3I8R9 19-654) above

For “biotinylated GST-J^WT and biotinylated P15 substrate peptide co-immobilized on a streptavidin BLI sensor (from UniProt Q91YW3) H422Q”, the response worked out at 0.14 nm in test [1] and 0.1 nm in test [2].
As for “wildtype J-domain of mouse P58/ERdj6 (residues 384-470) fused to GST (GST-J^WT) (from UniProt Q91YW3 384-470) (domain or fragment)”, the rate of ATP hydrolysis by BiP in a single-turnover ATPase assay with wildtype GST-J (2 µM) compared with non-functional GST-J^QPD in test [3] was more than 4 fold.

B1: wildtype J-domain of mouse P58/ERdj6 (residues 384-470) fused to GST (GST-J^WT) (domain or fragment, UniProt Q91YW3 384-470, looked up)
chain: QRLLKQSQKRDYYKILGVKRNAKKQEIIKAYRKLALQWHPDNFQNEEEKKKAEKKFIDIAAAKEVLSDPEMRKKFDDGEDPLDAESQ
modifications: biotinylated with Biotin-maleimide for the BLI experiments (a fraction of the purified protein); not biotinylated in pull-down, SEC and ATPase assays
notes: J-domain of P58/ERdj6, mouse, residues 384-470; also called model J-domain
In the case of B1, the Kd in test [4] and in test [5] was approximately 14 µM throughout.

B2: biotinylated GST-J^WT and biotinylated P15 substrate peptide co-immobilized on a streptavidin BLI sensor (other, mouse)
chain: B1 chain
peptide: ALLLSAPRRGAGKK
modifications: biotinylated with Biotin-maleimide | biotinylated on the C-terminal lysine
notes: J-domain of P58/ERdj6, mouse, residues 384-470; P15 model BiP substrate peptide (Misselwitz et al., 1998); Not a complex: two separately biotinylated ligands on one sensor surface (GST-J to ~0.4 nm signal, then saturation with P15); the signal is not divided among them; also called sensors carrying GST-J^WT and P15; GST-J^WT-coupled sensors; source: GST-J^WT: purified GST-fusion protein, …
Turning to B2, the koff in test [6] stood at 0.00079 s⁻¹; in test [7], 0.00329 s⁻¹; in test [8], 0.00165 s⁻¹.

The values above are taken from publication PMC5667935, “AMPylation targets the rate-limiting step of BiP’s ATPase cycle for its functional inactivation” (eLife, 2017).
